One molecule from publication PMC10749193 (Frontiers in Immunology, 2023) can be followed below.

This test has as its target SARS-CoV-2 S (Wuhan)-His (1–1273 aa) expressed in HEK293T cells (SARS-CoV-2 Wuhan, UniProt P0DTC2). Briefly: western blot. The following applies: one partner purified.

B1: anti-S2 monoclonal antibody 4A5 (antibody, V domains shown)
VH: QVKLEQSGPGILQPSQTLSLTCSFSGFSLSTSGMGVSWIRQSSGKGLEWLTHIYWDDDKRYNPSLKSRLTISKDTSRNQVFLKITSVDTADTATYYCARRRMITGLYYAMDYWGQGTSVTVSS
VL: DIVMTQSTLSLPVSFGDQVSISCRSSQSLANSYGITYLSWYLHKPGQSPQLLIYGISNRFSGVPDRFSGSGSGTDFTLKISTIKPEDLGMYYCLQGTHQPWTFGGGTKLEIK
With B1, the binding result is “binds”.
